This is an account of results in patent publication US20220409550A1.

Assay [1] has as its target murine PD-L1 (50010-M08H, Sino biological) (murine) (UniProt Q9EP73). The experiment in a line: SPR.
The target in assay [2] is murine PD-L2 (50804-M08H, Sino Biological) (murine) (UniProt Q9WUL5). The experiment in a line: SPR.
Assay [3] concerns the target murine PD-L1 on CHO-K1 cells (murine) (UniProt Q9EP73). The experiment in a line: cell-based or functional assay.

Sequence of murine PD-L2 (50804-M08H, Sino Biological) (murine) (Q9WUL5 20-219, stated change not applied): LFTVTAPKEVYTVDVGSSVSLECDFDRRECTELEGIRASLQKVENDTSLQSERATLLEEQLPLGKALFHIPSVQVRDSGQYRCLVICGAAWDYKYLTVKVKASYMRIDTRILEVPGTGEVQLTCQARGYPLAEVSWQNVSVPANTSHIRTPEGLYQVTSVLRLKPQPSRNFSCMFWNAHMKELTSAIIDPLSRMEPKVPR
Sequence of murine PD-L1 on CHO-K1 cells (murine) (Q9EP73 19-290): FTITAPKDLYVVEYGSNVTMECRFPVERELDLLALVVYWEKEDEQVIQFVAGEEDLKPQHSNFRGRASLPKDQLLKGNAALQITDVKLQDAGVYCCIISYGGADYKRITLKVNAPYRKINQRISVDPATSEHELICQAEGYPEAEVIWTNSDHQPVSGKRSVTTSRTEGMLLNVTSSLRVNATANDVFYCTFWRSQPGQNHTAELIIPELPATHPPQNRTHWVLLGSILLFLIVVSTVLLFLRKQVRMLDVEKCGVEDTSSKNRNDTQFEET
Sequence of murine PD-L1 (50010-M08H, Sino biological) (murine) (Q9EP73 19-238, stated change not applied): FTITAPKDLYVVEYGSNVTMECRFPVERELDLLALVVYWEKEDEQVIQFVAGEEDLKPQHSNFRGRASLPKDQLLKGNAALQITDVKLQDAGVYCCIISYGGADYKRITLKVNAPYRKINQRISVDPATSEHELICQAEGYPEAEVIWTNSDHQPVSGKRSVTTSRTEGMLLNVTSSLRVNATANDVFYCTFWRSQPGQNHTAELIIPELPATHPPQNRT

Regarding “PD-1-decorated nanocage (PdNC) (from UniProt P02794 1-183)”, the Kd in assay [1] is recorded as 3.81E-10 ?; in assay [2], 2.07E-9 ?. Further, in assay [3], the half maximal effective concentration (EC50), NFAT-mediated luciferase expression, bioluminescent PD-1/PD-L1 blockade bioassay worked out at 0.761 nM.
